Key:
HLA-C*04:01 = assay: IEDB peptide-MHC binding, purified MHC/direct/fluorescence; filed as Kd, often an IC50 or EC50 that approximates it; ≥ and ≤ were set here for values at or beyond the usual limits of such assays
HLA-B*08:01 = assay: IEDB peptide-MHC binding, purified MHC/competitive/fluorescence; filed as Kd, often an IC50 or EC50 that approximates it; ≥ and ≤ were set here for values at or beyond the usual limits of such assays; conditions: source organism: Vibrio vulnificus YJ016
HLA-B*15:09 = assay: as above
HLA-B*39:01 = assay: as above
HLA-A*02:06 = assay: as above; conditions: source organism: Vibrio vulnificus YJ016
HLA-B*57:01 = assay: IEDB peptide-MHC binding, purified MHC/direct/fluorescence; filed as Kd, often an IC50 or EC50 that approximates it; ≥ and ≤ were set here for values at or beyond the usual limits of such assays
HLA-B*15:17 [1] = assay: as above; conditions: source organism: Vibrio vulnificus YJ016
HLA-B*08:02 = assay: as above; conditions: source organism: Vibrio vulnificus YJ016
HLA-A*24:03 = assay: as above; conditions: source organism: Vibrio vulnificus YJ016
HLA-A*68:02 [2] = assay: as above; conditions: source organism: Vibrio vulnificus YJ016
HLA-B*15:01 = assay: as above
HLA-A*24:02 = assay: as above; conditions: source organism: Vibrio vulnificus YJ016
HLA-B*18:01 = assay: as above; conditions: source organism: Vibrio vulnificus YJ016
HLA-A*03:01 = assay: as above; conditions: source organism: Vibrio vulnificus YJ016
HLA-A*11:01 = assay: as above
HLA-A*69:01 = assay: as above
HLA-B*58:01 = assay: as above; conditions: source organism: Vibrio vulnificus YJ016
HLA-B*07:02 = assay: as above
HLA-B*27:05 = assay: as above
HLA-A*02:01 [3] = assay: as above
HLA-A*26:03 = assay: as above; conditions: source organism: Vibrio vulnificus YJ016
HLA-A*31:01 = assay: as above
HLA-A*23:01 = assay: as above; conditions: source organism: Vibrio vulnificus YJ016
HLA-A*01:01 = assay: as above
HLA-B*15:17 [4] = assay: IEDB peptide-MHC binding, purified MHC/competitive/fluorescence; filed as Kd, often an IC50 or EC50 that approximates it; ≥ and ≤ were set here for values at or beyond the usual limits of such assays; conditions: source organism: Escherichia coli 536
HLA-A*68:02 [5] = assay: as above; conditions: source organism: Escherichia coli 536
HLA-A*26:02 = assay: as above; conditions: source organism: Escherichia coli 536
HLA-A*02:01 [6] = assay: as above; conditions: source organism: Escherichia coli 536
HLA-B*46:01 [7] = assay: IEDB peptide-MHC binding, purified MHC/direct/fluorescence; filed as Kd, often an IC50 or EC50 that approximates it; ≥ and ≤ were set here for values at or beyond the usual limits of such assays; conditions: source organism: Escherichia coli O157:H7
HLA-B*48:01 [8] = assay: as above; conditions: source organism: Escherichia coli O157:H7
HLA-B*45:06 = assay: IEDB peptide-MHC binding, purified MHC/competitive/fluorescence; filed as Kd, often an IC50 or EC50 that approximates it; ≥ and ≤ were set here for values at or beyond the usual limits of such assays
HLA-B*83:01 = assay: as above
HLA-B*15:42 = assay: as above
HLA-A*32:15 = assay: as above
HLA-C*15:02 = assay: IEDB peptide-MHC binding, purified MHC/direct/fluorescence; filed as Kd, often an IC50 or EC50 that approximates it; ≥ and ≤ were set here for values at or beyond the usual limits of such assays
HLA-C*06:02 = assay: as above
HLA-A*26:01 = assay: as above; conditions: source organism: Campylobacter jejuni subsp. jejuni 81116
HLA-C*14:02 [9] = assay: as above; conditions: source organism: Campylobacter jejuni
HLA-B*27:20 = assay: IEDB peptide-MHC binding, purified MHC/competitive/fluorescence; filed as Kd, often an IC50 or EC50 that approximates it; ≥ and ≤ were set here for values at or beyond the usual limits of such assays; conditions: source organism: Mammarenavirus juninense
HLA-A*32:07 = assay: as above; conditions: source organism: Mammarenavirus juninense
HLA-C*03:03 = assay: IEDB peptide-MHC binding, purified MHC/direct/fluorescence; filed as Kd, often an IC50 or EC50 that approximates it; ≥ and ≤ were set here for values at or beyond the usual limits of such assays
HLA-C*14:02 [10] = assay: IEDB peptide-MHC binding, purified MHC/competitive/fluorescence; filed as Kd, often an IC50 or EC50 that approximates it; ≥ and ≤ were set here for values at or beyond the usual limits of such assays
HLA-C*08:02 = assay: IEDB peptide-MHC binding, purified MHC/direct/fluorescence; filed as Kd, often an IC50 or EC50 that approximates it; ≥ and ≤ were set here for values at or beyond the usual limits of such assays
HLA-B*15:02 = assay: IEDB peptide-MHC binding, purified MHC/competitive/fluorescence; filed as Kd, often an IC50 or EC50 that approximates it; ≥ and ≤ were set here for values at or beyond the usual limits of such assays; conditions: source organism: Brucella abortus S19
HLA-B*46:01 [11] = assay: as above; conditions: source organism: Brucella abortus S19
HLA-C*12:03 = assay: IEDB peptide-MHC binding, purified MHC/direct/fluorescence; filed as Kd, often an IC50 or EC50 that approximates it; ≥ and ≤ were set here for values at or beyond the usual limits of such assays; conditions: source organism: Brucella abortus S19
HLA-B*48:01 [12] = assay: IEDB peptide-MHC binding, purified MHC/competitive/fluorescence; filed as Kd, often an IC50 or EC50 that approximates it; ≥ and ≤ were set here for values at or beyond the usual limits of such assays; conditions: source organism: Cryptosporidium parvum Iowa II
[13] = source organism: Vibrio vulnificus YJ016
[14] = source organism: Escherichia coli 536
[15] = source organism: Escherichia coli O157:H7
[16] = source organism: Campylobacter jejuni
[17] = source organism: Mammarenavirus juninense
[18] = source organism: Pan troglodytes
[19] = source organism: Brucella abortus S19
[20] = source organism: human gammaherpesvirus 4

Sequence: IQNDLITEF
- Kd (HLA-C*04:01; source organism: Vaccinia virus Copenhagen): ≥ 20 µM

Sequence: WHQARFEEL
- Kd (HLA-B*08:01): ≥ 20 µM
- Kd (HLA-B*15:09; [13]): 0.0229 µM
- Kd (HLA-B*39:01; [13]): 0.0179 µM
- Kd (HLA-A*02:06): ≥ 20 µM
- Kd (HLA-B*57:01; [13]): ≥ 20 µM
- Kd (HLA-B*15:17 [1]): ≥ 20 µM
- Kd (HLA-B*08:02): ≥ 20 µM
- Kd (HLA-A*24:03): 0.145 µM
- Kd (HLA-A*68:02 [2]): ≥ 20 µM
- Kd (HLA-B*15:01; [13]): ≥ 20 µM
- Kd (HLA-A*24:02): 8.8 µM
- Kd (HLA-B*18:01): ≥ 20 µM
- Kd (HLA-A*03:01): ≥ 20 µM
- Kd (HLA-A*11:01; [13]): ≥ 20 µM
- Kd (HLA-A*69:01; [13]): ≥ 20 µM
- Kd (HLA-B*58:01): ≥ 20 µM
- Kd (HLA-B*07:02; [13]): ≥ 20 µM
- Kd (HLA-B*27:05; [13]): ≥ 20 µM
- Kd (HLA-A*02:01 [3]; [13]): ≥ 20 µM
- Kd (HLA-A*26:03): ≥ 20 µM
- Kd (HLA-A*31:01; [13]): ≥ 20 µM
- Kd (HLA-A*23:01): 1.7 µM
- Kd (HLA-A*01:01; [13]): ≥ 20 µM

Sequence: VMAASGAPF
- Kd (HLA-B*15:17 [4]): 0.214 µM
- Kd (HLA-A*68:02 [5]): ≥ 20 µM
- Kd (HLA-A*26:02): ≥ 20 µM
- Kd (HLA-B*15:09; [14]): ≥ 20 µM
- Kd (HLA-B*39:01; [14]): ≥ 20 µM
- Kd (HLA-A*02:01 [6]): ≥ 20 µM
- Kd (HLA-B*57:01; [15]): ≥ 20 µM
- Kd (HLA-B*46:01 [7]): 1.34 µM
- Kd (HLA-B*15:01; [15]): 0.019 µM
- Kd (HLA-A*11:01; [15]): ≥ 20 µM
- Kd (HLA-A*69:01; [15]): ≥ 20 µM
- Kd (HLA-B*48:01 [8]): ≥ 20 µM
- Kd (HLA-B*07:02; [15]): 0.149 µM
- Kd (HLA-B*27:05; [15]): ≥ 20 µM
- Kd (HLA-A*31:01; [15]): ≥ 20 µM
- Kd (HLA-A*01:01; [15]): ≥ 20 µM

Sequence: YTKKYLLSF
- Kd (HLA-B*45:06; [16]): ≥ 5 µM
- Kd (HLA-B*83:01; [16]): ≥ 5 µM
- Kd (HLA-B*15:42; [16]): ≥ 5 µM
- Kd (HLA-A*32:15; [16]): 0.235 µM
- Kd (HLA-C*15:02; [16]): 5 µM
- Kd (HLA-C*06:02; [16]): ≥ 20 µM
- Kd (HLA-A*26:01): 0.002 µM
- Kd (HLA-C*14:02 [9]): 2.05 µM

Sequence: KLMDVVYSI
- Kd (HLA-B*45:06; [17]): ≥ 5 µM
- Kd (HLA-B*27:20): 0.0179 µM
- Kd (HLA-A*32:07): 0.0021 µM
- Kd (HLA-B*15:42; [17]): ≥ 5 µM
- Kd (HLA-A*32:15; [17]): 0.0556 µM
- Kd (HLA-A*02:01 [3]; [17]): 0.0009 µM
- Kd (HLA-C*03:03; [17]): ≥ 20 µM

Sequence: VMPPRTLLL
- Kd (HLA-B*45:06; [18]): ≥ 5 µM
- Kd (HLA-B*83:01; [18]): ≥ 5 µM
- Kd (HLA-B*15:42; [18]): ≥ 5 µM
- Kd (HLA-C*14:02 [10]; [18]): 0.0768 µM
- Kd (HLA-C*08:02; [18]): ≥ 20 µM
- Kd (HLA-C*03:03; [18]): ≥ 20 µM

Sequence: WYDWQQVPF
- Kd (HLA-C*04:01; source organism: West Nile virus): 0.007 µM

Sequence: YMRERLSDF
- Kd (HLA-B*15:02): 0.235 µM
- Kd (HLA-B*46:01 [11]): 0.0306 µM
- Kd (HLA-B*45:06; [19]): ≥ 5 µM
- Kd (HLA-B*83:01; [19]): ≥ 5 µM
- Kd (HLA-B*15:42; [19]): ≥ 5 µM
- Kd (HLA-C*14:02 [10]; [19]): 0.018 µM
- Kd (HLA-C*15:02; [19]): ≥ 20 µM
- Kd (HLA-C*06:02; [19]): 0.112 µM
- Kd (HLA-C*12:03): 0.094 µM

Sequence: RSDEYVAYY
- Kd (HLA-C*08:02; [20]): 0.481 µM
- Kd (HLA-C*04:01; [20]): ≥ 20 µM

Sequence: IQNEIMKPL
- Kd (HLA-B*48:01 [12]): 0.502 µM
